Data on four molecules can be found in patent publication US20100239556A1, “PROMOTING ECM PRODUCTION BY FIBROBLAST CELLS AND/OR PROMOTING MIGRATION OF FIBROBLAST CELLS IN A BIOLOGICAL SYSTEM” (TGR BioScience Pty Ltd., priority 2006, published 2010).

By inhibition is commonly meant the drop in the measured response relative to a control, in per cent.

The subject of one test is HFF cells. The experiment in a line: Collagen I production in the presence of dexamethasone. Type of test: cell-based, human. The protocol: (§1) Primary human foreskin fibroblast cells (HFF) were seeded into 96 well plates at a density of 1.2×10^4 cells/well and cultured overnight in 10% fetal bovine serum/Dulbecco's minimum essential media (10% FBS/DMEM) at 37° C. and 5% CO2. The cells were then starved overnight in serum free DMEM and triplicate wells treated for six hours with a range of doses of proteins with peroxidase activity; horse radish peroxidase (HRP; 0.2-50 ug/ml), Arthromyces ramosus peroxidase (ARP; 0.2-50 ug/ml), microperoxidase (MP; 8-500 ug/ml), soy bean peroxidase (SBP; 0.2-100 ug/ml) and lactoperoxidase (LP; 10-310 ug/ml) (all obtained from Sigma-Aldrich). At the end of the six hour treatment period, the media was aspirated and replaced with fresh serum free DMEM and the cells cultured for a further 72 hours. After 72 hours the culture media was collected for assessment of secreted, soluble collagen types I, III and VI as well as fibronectin protein and the cells assessed for viability/growth using an alamar blue fluorescent dye assay. This assay measures the reduction of oxidized, blue nonfluorescent Alamar Blue reagent to a pink fluorescent dye in the cell medium, such that the higher the amount of reduction, the greater the cell number and/or activity (O'Brien Eur J Biochem 267 2000). Briefly, cells were bathed in a 10% Alamar Blue/phosphate-buffered saline (PBS) solution for 30-60 minutes and fluorescence measured at wavelengths of 485 nm excitation and 595 nm emission using a Wallac Victor Multilabel HTS counter. Relative fluorescent units (RFU) for each sample were normalized to control wells (DMEM only treated cells) and data expressed as mean±standard error of the mean (sem) for triplicate wells. Experiments were repeated at least three times with the combined data from all experiments shown.
The amount of soluble collagen types I, III, and VI in HFF conditioned media was measured by a direct coat ELISA method using standard curves constructed from purified human collagen I, III or VI (extracted from human placenta; col I, BD Biosciences; col III and VI, Rocklands Immunochemicals) and fibronectin (extracted from human plasma, Chemicon). Samples and standards (20 μl/well) were added to a 384 well spectraplate (Packard BioScience) and left at room temperature (RT) overnight. […] After a final wash (6×PBS-T), enhancement solution was added for at least 10 minutes and fluorescence measured at excitation 340 nm and emission 615 nm using a Wallac Victor Multilabel HTS counter. The respective ECM concentration of each sample was determined from the standard curve (μg/ml) and normalized to control wells (DMEM only treated cells) with the mean±sem for triplicate wells calculated. […]

Test [1] deals with human foreskin fibroblast cells (HFF). Description: Alamar blue viability/growth assay. Type of test: cell-based. The note with it: 72 hours. The protocol:
as §1, with “At the end of the six hour treatment period, the media was aspirated and replaced with fresh serum free DMEM and the cells cultured for a further 72 hours.” left out, “This assay measures the reduction of oxidized, blue nonfluorescent Alamar Blue reagent to a pink fluorescent dye in the cell medium, such that the higher the amount of reduction, the greater the cell number and/or activity (O'Brien Eur J Biochem 267 2000).” left out, “Experiments were repeated at least three times with the combined data from all experiments shown.” left out

For a further test, the system named is dermis. The experiment in a line: Fibrogenic response after intradermal injection. It is filed as in vivo, Sprague-Dawley rats. The note with it: LP 125 μg, TGFβ 0.5 μg, 3 days. Here is the method:
Groups of up to 4-8 female Sprague-Dawley rats were lightly anaesthetized and the dorsum shaved. At different sites on their dorsum, each rat received a bolus, intradermal injection of 4 doses of a protein with peroxidase activity (LP, […]; HRP, 1.25-25 μg; SBP, 1.25-25 μg; or micro-peroxidase [MP], 5-125 μg), a vehicle control or TGFβ2 as a positive control. Arthromyces ramosus peroxidase (ARP) was also injected at one dose of 25 μg. Proteins with peroxidase activity were injected in a volume of 50 μl which was sufficient to create a small blister in the skin that resolved within a few minutes. Across the group of rats, each dose of proteins with peroxidase activity was injected into each of the different injection sites to control for any site-related, intra-rat variation. The rats were returned to their cage and left alone for 3 days after which they were killed by CO2 asphyxiation and the skin at the injection sites collected for analysis. The skin at the injection sites was excised using a 6 mm biopsy punch with each piece bisected and fixed in 10% buffered formalin. Fixed tissue was processed for histological assessment by graded dehydration and mounting in paraffin blocks. Blocks were sectioned and sections stained with haematoxylin and eosin (H&E) and Masson's trichrome for qualitative analysis by an experienced pathologist. H&E stained sections were scored for the “fibroblast reaction” (1+-4+) to reflect the number of fibroblast cells identified at the injection site, with 4+ representing the greatest response. H&E and Massons trichrome stained sections were used to evaluate the amount of deposited, collagen-rich extracellular matrix (ECM) that was associated with the fibroblast reaction at each injection site. The collagen-rich ECM deposition was scored 1+-3+ with 3+ representing the greatest response. The scores were combined across the group of rats and statistical analysis performed using a Kruskal-Wallis one way analysis of variance on ranks (ANOVA) followed by post-hoc t-test comparing the response of the proteins with peroxidase activity to the control using Dunn's or Dunnett's method, p<0.05 was considered significant.

For test [2], the system named is human foreskin fibroblast cells (HFF cells). The experiment in a line: Repeated stimulation of collagen I production. It is filed as cell-based. The note with it: further 5 days without second stimulation. The protocol: Experiments were performed to ensure human fibroblast cells could be stimulated to increase ECM protein production by proteins having peroxidase activity after more than one application of the proteins having peroxidase activity. The capacity to respond repeatedly to the proteins having peroxidase activity provides important utility for the generation of ECM in vitro, particularly given that spent culture media needs to be replaced on a regular basis to maintain the viability of the cells. These experiments were performed using human foreskin fibroblast cells (HFF cells) seeded into 96 well plates at a density of 1.2×10^4 cells/well and cultured for one week in 10% fetal bovine serum/Dulbecco's minimum essential media (10% FBS/DMEM) at 37° C. and 5% CO2 (as described in Example 3). The confluent cells were then starved overnight in serum free DMEM and triplicate wells treated for six hours with MP, ARP and LP as representative proteins having peroxidase activity or the control agents transforming growth factor β2 (TGFβ2; R&D Systems) and 10% FBS (JRH BioSciences). After 48 hours, the conditioned media was collected for measurement of collagen I (as a representative ECM protein) and the cells either restimulated for six hours with fresh solutions containing proteins having peroxidase activity or control agents or the media was replaced with fresh serum free DMEM. The cells were cultured for a further 5 days after which the media was collected a second time for the measurement of collagen I. Media was also collected from replicate wells treated at the start of the experiment and left for 7 days (total culture period) for comparison.

Test [3] concerns human foreskin fibroblast cells (HFF). Description: Soluble collagen I, III and VI in HFF conditioned media (direct coat ELISA). It is filed as cell-based. The conditions noted are these: 30 μg/ml, 72 hours. The protocol: as §1, with “After 72 hours the culture media was collected for assessment of secreted, soluble collagen types I, III and VI as well as fibronectin protein and the cells assessed for viability/growth using an alamar blue fluorescent dye assay.” left out
The amount of soluble collagen types I, III, and VI in HFF conditioned media was measured by a direct coat ELISA method using standard curves constructed from purified human collagen I, III or VI (extracted from human placenta; col I, BD Biosciences; col III and VI, Rocklands Immunochemicals) and fibronectin (extracted from human plasma, Chemicon). Samples and standards (20 μl/well) were added to a 384 well spectraplate (Packard BioScience) and left at room temperature (RT) overnight. The spectraplate was then washed 6 times with PBS-tween 0.05% (PBS-T) and 2.5% bovine serum albumin (BSA)/PBS blocking solution added to each well and the plate incubated for 1 hour at RT. The plate was then washed 6 times with PBS-T and primary antibody (0.25 μg/ml rabbit-anti-human-collagen I polyclonal; 2 μg/ml rabbit-anti-human-collagen III polyclonal; 0.25 μg/ml rabbit-anti-human-collagen VI polyclonal; 0.2 μg/ml rabbit-anti-human-fibronectin polyclonal, all from Rockland Immunochemicals) in 5% non-fat dairy milk added to each well for four hours at RT. After washing (6×PBS-T), europium tagged anti-rabbit secondary antibody (0.5 μg/ml 1% BSA/PBS; Wallac Oy) was added for 1 hour at RT. After a final wash (6×PBS-T), enhancement solution was added for at least 10 minutes and fluorescence measured at excitation 340 nm and emission 615 nm using a Wallac Victor Multilabel HTS counter. The respective ECM concentration of each sample was determined from the standard curve (μg/ml) and normalized to control wells (DMEM only treated cells) with the mean±sem for triplicate wells calculated. Experiments were repeated at least three times with the combined data from all experiments shown.
(In general: An ELISA detects its analyte on a solid surface through an enzyme-linked reagent.)

Take `C[C@@H]1C[C@H]2[C@@H]3CCC4=CC(=O)C=C[C@]4(C)[C@@]3(F)[C@@H](O)C[C@]2(C)[C@@]1(O)C(=O)CO` [dexamethasone, reference compound]: the inhibition at 20 µM in the test on HFF cells (Homo sapiens, HFF, dexamethasone 20 μM, read-out: inhibition of collagen stimulated by ARP) is roughly 30%. recombinant ascorbate peroxidase [APX]: the “HFF cell growth or viability” value in test [1] was “Neither APX nor MPO had a major effect”.

B1: transforming growth factor β2 (protein, UniProt P61812 303-414, looked up)
Transforming growth factor …: ALDAAYCFRNVQDNCCLRPLYIDFKRDLGWKWIHEPKGYNANFCAGACPYLWSSDTQHSRVLSLYNTINPEASASPCCVSQDLEPLTILYYIGKTPKIEQLSNMIVKSCKCS
notes: control agent, fibrogenic factor (R&D Systems)
For B1, the “number of fibroblasts present at the injection site (H&E images)” value in the test on dermis was “profound increase in the number of fibroblasts”. Besides, the “collagen I production when left untreated after the media change at day 2” value in test [2] is “maintained level of collagen I production”. Further, the “maximum increase in collagen I levels” value in the test on HFF cells (1-10 ng/ml, no dexamethasone) is listed as 2-2.5 fold.

B2: myeloperoxidase (protein, UniProt P05164 165-745, looked up)
Myeloperoxidase: VTCPEQDKYRTITGMCNNRRSPTLGASNRAFVRWLPAEYEDGFSLPYGWTPGVKRNGFPVALARAVSNEIVRFPTDQLTPDQERSLMFMQWGQLLDHDLDFTPEPAARASFVTGVNCETSCVQQPPCFPLKIPPNDPRIKNQADCIPFFRSCPACPGSNITIRNQINALTSFVDASMVYGSEEPLARNLRNMSNQLGLLAVNQRFQDNGRALLPFDNLHDDPCLLTNRSARIPCFLAGDTRSSEMPELTSMHTLLLREHNRLATELKSLNPRWDGERLYQEARKIVGAMVQIITYRDYLPLVLGPTAMRKYLPTYRSYNDSVDPRIANVFTNAFRYGHTLIQPFMFRLDNRYQPMEPNPRVPLSRVFFASWRVVLEGGIDPILRGLMATPAKLNRQNQIAVDEIRERLFEQVMRIGLDLPALNMQRSRDHGLPGYNAWRRFCGLPQPETVGQLGTVLRNLKLARKLMEQYGTPNNIDIWMGGVSEPLKRKGRVGPLLACIIGTQFRKLRDGDRFWWENEGVFSMQQRQALAQISLPRIICDNTGITTVSKNNIFMSNSYPRDFVNCSTLPALNLASWREAS
For the molecule B2, the “increase in collagen I production” value in test [3] came out at 3 fold. Also, the “HFF cell growth or viability” value in test [1] is “Neither APX nor MPO had a major effect”.
